# Results taken from the supplement of paper PMC7877785.
# ± gives the uncertainty stated by the source.
# Assay: self-splicing fitness, log relative to wild type (ln ratio); higher = more splicing; Tetrahymena group I intron in knt gene, E. coli kanamycin selection, DiMSum; sequences stand for … in CUCUCU…GGAGGGAAAAGUUAUCAGGCAUGCACCUGGUAGCUAGUCUUUAAACCAAUAGAUUGCAUCGGUUUAAAAGGCAAGACCGUCAAAUUGCGGGAAAGGGGUCAACAGCCGUUCAGUACCAAGUCUCAGGGGAAACUUUGAGAUGGCCUUGCAAAGGGUAUGGUAAUAAGCUGACGGACAUGGUCCUAACCACGCAGCCAAGUCCUAAGUCAACAGAUCUUCUGUUGAUAUGGAUGCAGUUCACAGACUAAAUGUCGGUCGGGGAAGAUGUAUUCUUCUCAUAAGAUAUAGUCGGACCUCUCCUUAAUGGGAGCUAGCGGAUGAAGUGAUGCAACACUGGAGCCGCUGGGAACUAAUUUGUAUGCGAAAGUAUAUUGAUUAGUUUUGGAGUACUCGUGGUCG
# Summary of the method: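 A randomised library covering all eight P1ex-region intron nucleotides was built with the intron in the knt kanamycin-resistance gene on pET-22b(+) and held in E. coli BL21(DE3). Cells were grown overnight at 37°C or 30°C on LB agar, with or without 25 μg/mL kanamycin, plus 100 μg/mL carbenicillin, 50 μM IPTG and 0.2% rhamnose, and pooled colonies were amplicon-sequenced on an Illumina HiSeq 2500. DiMSum fitness is the error-weighted combination of wild-type-normalised replicate fold changes, kanamycin versus none.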
Sequence,self-splicing fitness (ln) (30 °C),self-splicing fitness (ln) (37 °C)
AACAAGCAAUAUUACGUGCA,-0.969 ± 0.048,-0.28 ± 0.065
AACAAGCAAUAUUACGUGCC,-0.971 ± 0.086,-0.503 ± 0.12
AACAAGCAAUAUUACGUGCU,-2.57 ± 0.16,-1.51 ± 0.14
AACAAGCAAUAUUACGUGGC,-3.61 ± 0.18,-2.52 ± 0.14
AACAAGCAAUAUUACGUUGC,-2.83 ± 0.18,-3.21 ± 0.32
AACCAGCAAUAUUACGAGCA,-1.02 ± 0.092,-0.505 ± 0.1
AACCAGCAAUAUUACGAGCC,-2.85 ± 0.17,-1.72 ± 0.16
AACCAGCAAUAUUACGAGUU,-3.37 ± 0.16,-1.78 ± 0.14
AACCAGCAAUAUUACGCAGU,-2.6 ± 0.11,-1.35 ± 0.11
AACCAGCAAUAUUACGCCAU,-2.81 ± 0.15,-1.42 ± 0.11
AACCAGCAAUAUUACGCCCC,-0.331 ± 0.12,-0.517 ± 0.17
AACCAGCAAUAUUACGCCGU,-1.03 ± 0.079,0.182 ± 0.1
AACCAGCAAUAUUACGCCUA,-0.252 ± 0.076,-0.557 ± 0.086
AACCAGCAAUAUUACGCGCC,-0.668 ± 0.1,-0.521 ± 0.12
AACCAGCAAUAUUACGCGGA,-2.05 ± 0.093,-0.49 ± 0.072
AACCAGCAAUAUUACGCGUA,-0.386 ± 0.063,-0.313 ± 0.073
AACCAGCAAUAUUACGCUGC,-2.31 ± 0.18,-3.1 ± 0.24
AACCAGCAAUAUUACGCUGU,-3.49 ± 0.15,-1.4 ± 0.095
AACCAGCAAUAUUACGGGGG,-2.43 ± 0.095,-1.02 ± 0.091
AACCAGCAAUAUUACGGUCA,-0.301 ± 0.045,0.0924 ± 0.062
AACCAGCAAUAUUACGUCUG,-3.9 ± 0.17,-2.54 ± 0.16
AACCAGCAAUAUUACGUGAA,-0.843 ± 0.074,-0.516 ± 0.087
AACCAGCAAUAUUACGUGGU,-3.19 ± 0.12,-3.15 ± 0.17
AACCAGCAAUAUUACGUUGC,-3.21 ± 0.12,-3.05 ± 0.19
AACGAGCAAUAUUACGAAUG,-4.03 ± 0.28,-3.18 ± 0.25
AACGAGCAAUAUUACGAAUU,-2.78 ± 0.11,-2.16 ± 0.12

Sequence,self-splicing fitness (ln) (30 °C),self-splicing fitness (ln) (37 °C)
AACGAGCAAUAUUACGACUA,-1.81 ± 0.21,-0.213 ± 0.18
AACGAGCAAUAUUACGAGAA,-1.87 ± 0.22,-1.56 ± 0.33
AACGAGCAAUAUUACGAUCC,-2.01 ± 0.38,
AACGAGCAAUAUUACGCAAU,-4.26 ± 0.36,-2.45 ± 0.27
AACGAGCAAUAUUACGCAUC,-3.65 ± 0.3,-0.331 ± 0.18
AACGAGCAAUAUUACGCCAG,-4.01 ± 0.37,-1.56 ± 0.32
AACGAGCAAUAUUACGCGUC,-3.01 ± 0.22,-2.85 ± 0.38
AACGAGCAAUAUUACGCUAC,,-1.86 ± 0.31
AACGAGCAAUAUUACGGCCA,-3.21 ± 0.18,-1.37 ± 0.13
AACGAGCAAUAUUACGGGCC,-4.29 ± 0.39,-3.18 ± 0.47
AACGAGCAAUAUUACGUCAU,-2.98 ± 0.1,-2.44 ± 0.13
AACGAGCAAUAUUACGUGUC,-2.08 ± 0.11,-2.17 ± 0.23
AACGAGCAAUAUUACGUUAA,-3.45 ± 0.36,-2.2 ± 0.24
AACGAGCAAUAUUACGUUCA,-2.32 ± 0.17,-1.87 ± 0.23
AACUAGCAAUAUUACGAAAU,-2.01 ± 0.09,-0.94 ± 0.1
AACUAGCAAUAUUACGAACC,-0.5 ± 0.2,-0.373 ± 0.21
AACUAGCAAUAUUACGAGAU,-2.52 ± 0.13,-1.65 ± 0.14
AACUAGCAAUAUUACGAGCC,-0.792 ± 0.47,-1.17 ± 0.34
AACUAGCAAUAUUACGCAAG,-3.14 ± 0.14,-1.77 ± 0.15
AACUAGCAAUAUUACGCACU,-0.218 ± 0.084,-0.0139 ± 0.11
AACUAGCAAUAUUACGCAUC,-2.73 ± 0.14,-2.28 ± 0.22
AACUAGCAAUAUUACGCCAA,-2.83 ± 0.21,-1.63 ± 0.16
AACUAGCAAUAUUACGCCGG,-1.63 ± 0.14,-1.19 ± 0.17
AACUAGCAAUAUUACGCCUG,-1.08 ± 0.12,-1.43 ± 0.13
AACUAGCAAUAUUACGCGAG,-1.82 ± 0.11,-0.501 ± 0.12
AACUAGCAAUAUUACGCGUC,-1.95 ± 0.12,-1.65 ± 0.14

Sequence,self-splicing fitness (ln) (30 °C),self-splicing fitness (ln) (37 °C)
AACUAGCAAUAUUACGGAUG,-2.26 ± 0.067,-1.03 ± 0.072
AACUAGCAAUAUUACGGCCU,-0.472 ± 0.09,-0.0804 ± 0.095
AACUAGCAAUAUUACGGUCG,-0.193 ± 0.062,0.193 ± 0.085
AACUAGCAAUAUUACGGUGA,-1.58 ± 0.073,-0.833 ± 0.099
AACUAGCAAUAUUACGUAAU,-1.82 ± 0.098,-0.948 ± 0.099
AACUAGCAAUAUUACGUAGC,-4.04 ± 0.26,-2.12 ± 0.21
AACUAGCAAUAUUACGUCGC,-2.63 ± 0.11,-1.08 ± 0.14
AACUAGCAAUAUUACGUGGU,-3.36 ± 0.16,-2.86 ± 0.23
AACUAGCAAUAUUACGUUGC,-3.47 ± 0.17,-1.9 ± 0.22
AACUAGCAAUAUUACGUUGU,-3.51 ± 0.13,-2.29 ± 0.12
AAGAAGCAAUAUUACGACUC,0.456 ± 0.13,0.487 ± 0.18
AAGAAGCAAUAUUACGAUAG,-3.6 ± 0.28,-1.87 ± 0.2
AAGAAGCAAUAUUACGCAAA,-2.71 ± 0.24,-0.539 ± 0.16
AAGAAGCAAUAUUACGCAAC,-1.53 ± 0.12,-2.1 ± 0.18
AAGAAGCAAUAUUACGCACA,-0.267 ± 0.082,-0.233 ± 0.097
AAGAAGCAAUAUUACGCUCC,-2.37 ± 0.2,-0.643 ± 0.18
AAGAAGCAAUAUUACGGAAG,-2.77 ± 0.094,-1.68 ± 0.11
AAGAAGCAAUAUUACGGCAA,-0.128 ± 0.096,-0.201 ± 0.13
AAGAAGCAAUAUUACGGCGA,-0.584 ± 0.071,-0.285 ± 0.088
AAGAAGCAAUAUUACGGGGA,-3.37 ± 0.29,-2.18 ± 0.17
AAGAAGCAAUAUUACGGGGU,-4.04 ± 0.29,-2.64 ± 0.2
AAGAAGCAAUAUUACGGUAU,-2.08 ± 0.073,-0.974 ± 0.084
AAGAAGCAAUAUUACGGUCU,-0.564 ± 0.066,-0.233 ± 0.1
AAGAAGCAAUAUUACGGUGU,-1.99 ± 0.072,-1.65 ± 0.086
